From IntAct's records for PubMed 29415205

B1: Glycine--tRNA ligase (Homo sapiens), P41250 (parent)
chain: MPSPRPVLLRGARAALLLLLPPRLLARPSLLLRRSLSAASCPPISLPAAASRSSMDGAGAEEVLAPLRLAVRQQGDLVRKLKEDKAPQVDVDKAVAELKARKRVLEAKELALQPKDDIVDRAKMEDTLKRRFFYDQAFAIYGGVSGLYDFGPVGCALKNNIIQTWRQHFIQEEQILEIDCTMLTPEPVLKTSGHVDKFADFMVKDVKNGECFRADHLLKAHLQKLMSDKKCSVEKKSEMESVLAQLDNYGQQELADLFVNYNVKSPITGNDLSPPVSFNLMFKTFIGPGGNMPGYLRPETAQGIFLNFKRLLEFNQGKLPFAAAQIGNSFRNEISPRSGLIRVREFTMAEIEHFVDPSEKDHPKFQNVADLHLYLYSAKAQVSGQSARKMRLGDAVEQGVINNTVLGYFIGRIYLYLTKVGISPDKLRFRQHMENEMAHYACDCWDAESKTSYGWIEIVGCADRSCYDLSCHARATKVPLVAEKPLKEPKTVNVVQFEPSKGAIGKAYKKDAKLVMEYLAICDECYITEMEMLLNEKGEFTIETEGKTFQLTKDMINVKRFQKTLYVEEVVPNVIEPSFGLGRIMYTVFEHTFHVREGDEQRTFFSFPAVVAPFKCSVLPLSQNQEFMPFVKELSEALTRHGVSHKVDDSSGSIGRRYARTDEIGVAFGVTIDFDTVNKTPHTATLRDRDSMRQIRAEISELPSIVQDLANGNITWADVEARYPLFEGQETGKKETIEE

Variants of: B1
Settings: with hdac6_human HDAC6, Q9UBN7
Chain of hdac6_human HDAC6, Q9UBN7 (Q9UBN7 whole entry): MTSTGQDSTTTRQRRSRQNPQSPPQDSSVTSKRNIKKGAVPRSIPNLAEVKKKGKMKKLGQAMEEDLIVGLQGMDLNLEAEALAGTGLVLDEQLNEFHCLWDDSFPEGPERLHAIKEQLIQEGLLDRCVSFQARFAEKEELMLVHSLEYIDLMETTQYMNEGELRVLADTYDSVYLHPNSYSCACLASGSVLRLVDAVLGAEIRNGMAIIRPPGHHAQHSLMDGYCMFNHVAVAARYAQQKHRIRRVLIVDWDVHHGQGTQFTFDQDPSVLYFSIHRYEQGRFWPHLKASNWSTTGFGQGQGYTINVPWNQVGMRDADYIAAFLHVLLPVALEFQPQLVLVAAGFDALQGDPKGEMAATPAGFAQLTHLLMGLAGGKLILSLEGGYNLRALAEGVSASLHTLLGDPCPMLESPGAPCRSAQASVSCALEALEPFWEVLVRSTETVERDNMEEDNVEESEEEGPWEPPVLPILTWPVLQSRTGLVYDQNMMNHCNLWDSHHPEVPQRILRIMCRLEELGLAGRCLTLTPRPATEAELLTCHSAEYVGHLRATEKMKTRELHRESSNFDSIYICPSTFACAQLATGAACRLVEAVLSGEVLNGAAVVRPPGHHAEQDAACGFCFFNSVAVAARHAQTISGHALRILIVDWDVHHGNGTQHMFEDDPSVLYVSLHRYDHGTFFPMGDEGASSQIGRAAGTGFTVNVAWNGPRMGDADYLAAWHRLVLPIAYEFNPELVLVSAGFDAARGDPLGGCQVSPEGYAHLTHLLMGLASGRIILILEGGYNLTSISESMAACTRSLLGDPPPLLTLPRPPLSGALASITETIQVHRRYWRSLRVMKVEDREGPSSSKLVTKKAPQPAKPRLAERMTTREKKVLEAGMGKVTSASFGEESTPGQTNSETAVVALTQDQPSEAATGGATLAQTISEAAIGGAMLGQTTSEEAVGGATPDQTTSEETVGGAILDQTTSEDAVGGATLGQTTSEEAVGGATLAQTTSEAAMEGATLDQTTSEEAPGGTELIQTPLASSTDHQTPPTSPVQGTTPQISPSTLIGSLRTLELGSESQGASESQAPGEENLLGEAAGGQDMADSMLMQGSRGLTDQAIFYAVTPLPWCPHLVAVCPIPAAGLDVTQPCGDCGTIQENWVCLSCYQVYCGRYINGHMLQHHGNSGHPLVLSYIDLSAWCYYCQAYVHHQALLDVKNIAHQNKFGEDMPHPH

effect of a mutation on the interaction | Variant
with no effect | C211R
